B1: Speckle-type POZ protein (Homo sapiens), O43791 (parent)
chain: MSRVPSPPPPAEMSSGPVAESWCYTQIKVVKFSYMWTINNFSFCREEMGEVIKSSTFSSGANDKLKWCLRVNPKGLDEESKDYLSLYLLLVSCPKSEVRAKFKFSILNAKGEETKAMESQRAYRFVQGKDWGFKKFIRRDFLLDEANGLLPDDKLTLFCEVSVVQDSVNISGQNTMNMVKVPECRLADELGGLWENSRFTDCCLCVAGQEFQAHKAILAARSPVFSAMFEHEMEESKKNRVEINDVEPEVFKEMMCFIYTGKAPNLDKMADDLLAAADKYALERLKVMCEDALCSNLSVENAAEILILADLHSADQLKTQAVDFINYHASDVLETSGWKSMVVSHPHLVAEAYRSLASAQCPFLGPPRKRLKQS

Variants of: B1
Settings: with dll3_human DLL3, Q9NYJ7
Sequence of dll3_human DLL3, Q9NYJ7 (Q9NYJ7 whole entry): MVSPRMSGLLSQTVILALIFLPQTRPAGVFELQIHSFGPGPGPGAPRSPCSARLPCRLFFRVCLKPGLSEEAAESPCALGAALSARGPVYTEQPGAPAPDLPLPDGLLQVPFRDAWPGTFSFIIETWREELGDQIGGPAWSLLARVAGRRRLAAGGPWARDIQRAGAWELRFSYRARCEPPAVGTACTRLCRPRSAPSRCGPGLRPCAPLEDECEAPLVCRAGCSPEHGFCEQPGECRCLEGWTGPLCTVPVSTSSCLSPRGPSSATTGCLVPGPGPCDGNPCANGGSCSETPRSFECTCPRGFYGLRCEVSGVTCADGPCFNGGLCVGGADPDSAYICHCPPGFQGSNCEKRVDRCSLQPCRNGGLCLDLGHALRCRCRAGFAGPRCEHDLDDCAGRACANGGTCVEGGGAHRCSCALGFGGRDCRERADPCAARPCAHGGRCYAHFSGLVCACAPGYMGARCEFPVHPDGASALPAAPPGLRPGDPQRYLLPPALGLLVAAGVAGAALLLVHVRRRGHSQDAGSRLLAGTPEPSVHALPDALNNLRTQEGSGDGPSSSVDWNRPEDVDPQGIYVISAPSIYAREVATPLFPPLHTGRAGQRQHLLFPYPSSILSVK

effect of a mutation on the interaction | Variant
with no effect | F102C

Variants of: B1
Settings: with duox2_human DUOX2, Q9NRD8

effect of a mutation on the interaction | Variant
with no effect | F102C

Variants of: B1
Settings: with e2f2_human E2F2, Q14209
Sequence of e2f2_human E2F2, Q14209 (Q14209 whole entry): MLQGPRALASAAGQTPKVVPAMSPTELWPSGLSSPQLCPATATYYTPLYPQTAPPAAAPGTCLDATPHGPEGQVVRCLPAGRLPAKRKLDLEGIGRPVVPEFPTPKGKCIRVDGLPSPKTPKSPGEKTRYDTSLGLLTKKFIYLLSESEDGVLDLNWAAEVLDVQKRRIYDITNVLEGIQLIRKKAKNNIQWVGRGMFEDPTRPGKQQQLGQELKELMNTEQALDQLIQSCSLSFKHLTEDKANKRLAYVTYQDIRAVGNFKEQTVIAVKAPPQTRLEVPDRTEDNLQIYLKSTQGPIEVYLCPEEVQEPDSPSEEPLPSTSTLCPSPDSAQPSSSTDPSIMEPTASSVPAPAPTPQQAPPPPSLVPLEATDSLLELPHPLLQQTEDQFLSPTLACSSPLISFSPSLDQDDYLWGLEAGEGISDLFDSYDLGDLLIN

effect of a mutation on the interaction | Variant
with no effect | F102C

Variants of: B1
Settings: with e2f3_human E2F3, O00716
Sequence of e2f3_human E2F3, O00716 (O00716 whole entry): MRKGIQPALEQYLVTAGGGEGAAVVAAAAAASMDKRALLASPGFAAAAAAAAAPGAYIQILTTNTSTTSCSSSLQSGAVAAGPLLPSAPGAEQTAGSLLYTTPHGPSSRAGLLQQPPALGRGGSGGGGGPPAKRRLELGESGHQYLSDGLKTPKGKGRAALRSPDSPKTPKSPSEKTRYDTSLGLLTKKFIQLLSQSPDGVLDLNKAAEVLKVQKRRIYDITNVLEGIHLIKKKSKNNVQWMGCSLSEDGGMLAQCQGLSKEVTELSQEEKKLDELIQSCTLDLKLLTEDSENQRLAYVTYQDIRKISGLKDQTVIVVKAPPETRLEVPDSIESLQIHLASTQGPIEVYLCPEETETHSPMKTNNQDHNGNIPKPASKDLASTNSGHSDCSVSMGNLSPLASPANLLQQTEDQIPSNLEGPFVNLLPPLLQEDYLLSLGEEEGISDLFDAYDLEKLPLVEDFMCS

effect of a mutation on the interaction | Variant
with no effect | F102C

Variants of: B1
Settings: with e2f5_human E2F5, Q15329

effect of a mutation on the interaction | Variant
with no effect | F102C

Variants of: B1
Settings: with e2f6_human E2F6, O75461
Sequence of e2f6_human E2F6, O75461 (O75461 whole entry): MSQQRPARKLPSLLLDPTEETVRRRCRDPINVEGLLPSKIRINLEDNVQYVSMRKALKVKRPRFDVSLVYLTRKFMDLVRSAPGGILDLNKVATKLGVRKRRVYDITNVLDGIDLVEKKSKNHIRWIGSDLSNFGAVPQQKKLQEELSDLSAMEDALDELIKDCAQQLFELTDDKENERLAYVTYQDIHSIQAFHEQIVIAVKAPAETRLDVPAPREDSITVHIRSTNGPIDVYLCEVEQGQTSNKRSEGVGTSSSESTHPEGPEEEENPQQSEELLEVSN

effect of a mutation on the interaction | Variant
with no effect | F102C

Variants of: B1
Settings: with e2f8_human E2F8, A0AVK6

effect of a mutation on the interaction | Variant
with no effect | F102C

Variants of: B1
Settings: with if4e_human EIF4E

effect of a mutation on the interaction | Variant
with no effect | F102C

Variants of: B1
Settings: with epha7_human EPHA7, Q15375
Sequence of epha7_human EPHA7, Q15375 (Q15375 whole entry, looked up): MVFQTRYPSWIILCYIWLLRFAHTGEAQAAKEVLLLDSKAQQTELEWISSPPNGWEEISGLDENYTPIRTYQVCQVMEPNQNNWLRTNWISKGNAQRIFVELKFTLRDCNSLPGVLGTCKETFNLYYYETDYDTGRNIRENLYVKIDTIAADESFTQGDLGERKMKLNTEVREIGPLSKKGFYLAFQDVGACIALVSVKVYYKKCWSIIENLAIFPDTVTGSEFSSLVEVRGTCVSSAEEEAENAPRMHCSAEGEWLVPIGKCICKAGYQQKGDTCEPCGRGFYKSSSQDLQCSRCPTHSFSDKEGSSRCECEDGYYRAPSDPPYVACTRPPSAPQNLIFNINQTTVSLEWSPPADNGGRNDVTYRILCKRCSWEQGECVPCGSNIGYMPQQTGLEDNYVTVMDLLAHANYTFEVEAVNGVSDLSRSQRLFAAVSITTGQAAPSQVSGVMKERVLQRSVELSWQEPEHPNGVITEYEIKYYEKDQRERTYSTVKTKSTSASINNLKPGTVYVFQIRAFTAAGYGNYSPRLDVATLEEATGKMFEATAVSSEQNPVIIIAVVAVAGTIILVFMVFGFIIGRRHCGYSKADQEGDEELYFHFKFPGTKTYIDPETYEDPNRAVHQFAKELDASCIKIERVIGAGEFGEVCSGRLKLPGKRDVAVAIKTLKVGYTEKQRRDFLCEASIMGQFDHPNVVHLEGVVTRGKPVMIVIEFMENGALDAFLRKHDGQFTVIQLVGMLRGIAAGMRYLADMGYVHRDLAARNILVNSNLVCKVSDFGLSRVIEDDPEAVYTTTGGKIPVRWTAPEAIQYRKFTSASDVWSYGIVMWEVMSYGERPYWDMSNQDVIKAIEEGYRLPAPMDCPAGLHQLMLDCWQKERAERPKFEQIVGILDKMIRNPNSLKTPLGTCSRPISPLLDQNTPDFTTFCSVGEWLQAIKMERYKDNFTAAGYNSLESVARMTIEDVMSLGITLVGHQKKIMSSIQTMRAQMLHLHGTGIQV

effect of a mutation on the interaction | Variant
with no effect | F102C

Variants of: B1
Settings: with ephb1_human EPHB1, P54762

effect of a mutation on the interaction | Variant
with no effect | F102C

Variants of: B1
Settings: with erbb3_human ERBB3, P21860

effect of a mutation on the interaction | Variant
with no effect | F102C

Variants of: B1
Settings: with erbb4_human ERBB4, Q15303

effect of a mutation on the interaction | Variant
with no effect | F102C

Variants of: B1
Settings: with esr1_human ESR1, P03372

effect of a mutation on the interaction | Variant
with no effect | F102C

Variants of: B1
Settings: with etv1_human ETV1, P50549

effect of a mutation on the interaction | Variant
with no effect | F102C

Variants of: B1
Settings: with ezh1_human EZH1, Q92800

effect of a mutation on the interaction | Variant
with no effect | F102C

Variants of: B1
Settings: with ezh2_human EZH2, Q15910

effect of a mutation on the interaction | Variant
with no effect | F102C

Variants of: B1
Settings: with facd2_human FANCD2, Q9BXW9

effect of a mutation on the interaction | Variant
with no effect | F102C

Variants of: B1
Settings: with fgf19_human FGF19, O95750
Sequence of fgf19_human FGF19, O95750 (O95750 whole entry): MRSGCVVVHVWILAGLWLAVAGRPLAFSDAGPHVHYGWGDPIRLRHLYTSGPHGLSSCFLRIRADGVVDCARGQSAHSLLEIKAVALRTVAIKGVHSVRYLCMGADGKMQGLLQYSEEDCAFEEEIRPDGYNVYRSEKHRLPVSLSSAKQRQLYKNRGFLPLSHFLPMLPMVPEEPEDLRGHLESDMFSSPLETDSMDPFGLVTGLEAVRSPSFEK

effect of a mutation on the interaction | Variant
with no effect | F102C

Variants of: B1
Settings: with fgfp1_human FGFBP1, Q14512

effect of a mutation on the interaction | Variant
with no effect | F102C

Variants of: B1
Settings: with fgfr4_human FGFR4, P22455

effect of a mutation on the interaction | Variant
with no effect | F102C

Variants of: B1
Settings: with fumh_human FH

effect of a mutation on the interaction | Variant
with no effect | F102C

Variants of: B1
Settings: with fzr1_human FZR1, Q9UM11

effect of a mutation on the interaction | Variant
with no effect | F102C

Variants of: B1
Settings: with gbra6_human GABRA6, Q16445

effect of a mutation on the interaction | Variant
with no effect | F102C

Variants of: B1
Settings: with gata1_human GATA1, P15976

effect of a mutation on the interaction | Variant
with no effect | F102C

Variants of: B1
Settings: with p66b_human GATAD2B

effect of a mutation on the interaction | Variant
with no effect | F102C

Variants of: B1
Settings: with gna11_human GNA11, P29992

effect of a mutation on the interaction | Variant
with no effect | F102C

Variants of: B1
Settings: with gna13_human GNA13, Q14344

effect of a mutation on the interaction | Variant
with no effect | F102C

Variants of: B1
Settings: with gnaq_human GNAQ

effect of a mutation on the interaction | Variant
with no effect | F102C

Variants of: B1
Settings: with grm1_human GRM1, Q13255

effect of a mutation on the interaction | Variant
with no effect | F102C

Variants of: B1
Settings: with grm3_human GRM3, Q14832
Sequence of grm3_human GRM3, Q14832 (Q14832 whole entry, looked up): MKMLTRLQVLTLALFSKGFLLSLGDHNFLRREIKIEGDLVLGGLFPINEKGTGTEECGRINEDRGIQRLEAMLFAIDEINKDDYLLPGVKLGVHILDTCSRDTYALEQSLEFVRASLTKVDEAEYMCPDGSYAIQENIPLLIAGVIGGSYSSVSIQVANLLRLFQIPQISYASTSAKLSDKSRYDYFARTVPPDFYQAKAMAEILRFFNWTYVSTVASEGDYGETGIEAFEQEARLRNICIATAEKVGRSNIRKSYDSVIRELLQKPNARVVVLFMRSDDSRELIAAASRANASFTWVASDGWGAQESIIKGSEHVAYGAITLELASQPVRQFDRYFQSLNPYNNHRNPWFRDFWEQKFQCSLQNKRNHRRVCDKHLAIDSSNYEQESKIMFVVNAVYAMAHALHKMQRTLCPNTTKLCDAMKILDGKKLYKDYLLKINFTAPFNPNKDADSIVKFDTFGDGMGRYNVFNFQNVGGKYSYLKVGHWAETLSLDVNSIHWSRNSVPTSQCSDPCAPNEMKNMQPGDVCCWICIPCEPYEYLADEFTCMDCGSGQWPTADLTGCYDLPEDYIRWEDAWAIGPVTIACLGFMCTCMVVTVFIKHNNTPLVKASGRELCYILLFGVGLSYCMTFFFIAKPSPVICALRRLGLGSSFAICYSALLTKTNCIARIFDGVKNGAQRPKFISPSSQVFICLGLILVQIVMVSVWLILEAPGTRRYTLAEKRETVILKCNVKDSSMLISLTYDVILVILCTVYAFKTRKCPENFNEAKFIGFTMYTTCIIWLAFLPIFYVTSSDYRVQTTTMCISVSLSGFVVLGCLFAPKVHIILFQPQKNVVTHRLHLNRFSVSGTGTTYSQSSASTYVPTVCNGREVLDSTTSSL

effect of a mutation on the interaction | Variant
with no effect | F102C

Variants of: B1
Settings: with gtpb4_human GTPBP4, Q9BZE4

effect of a mutation on the interaction | Variant
with no effect | F102C

Variants of: B1
Settings: with h33_human H3-3A

effect of a mutation on the interaction | Variant
with no effect | F102C

Variants of: B1
Settings: with hdac1_human HDAC1, Q13547

effect of a mutation on the interaction | Variant
with no effect | F102C

Variants of: B1
Settings: with hdac3_human HDAC3, O15379

effect of a mutation on the interaction | Variant
with no effect | F102C

Variants of: B1
Settings: with hgf_human HGF

effect of a mutation on the interaction | Variant
with no effect | F102C

Variants of: B1
Settings: with h31_human H3C1, P68431

effect of a mutation on the interaction | Variant
with no effect | F102C

Variants of: B1
Settings: with hlab_human HLA-B

effect of a mutation on the interaction | Variant
with no effect | F102C

Variants of: B1
Settings: with il7ra_human IL7R

effect of a mutation on the interaction | Variant
with no effect | F102C

Variants of: B1
Settings: with int12_human INTS12, Q96CB8

effect of a mutation on the interaction | Variant
with no effect | F102C

Variants of: B1
Settings: with jak1_human JAK1, P23458
Sequence of jak1_human JAK1, P23458 (P23458 whole entry): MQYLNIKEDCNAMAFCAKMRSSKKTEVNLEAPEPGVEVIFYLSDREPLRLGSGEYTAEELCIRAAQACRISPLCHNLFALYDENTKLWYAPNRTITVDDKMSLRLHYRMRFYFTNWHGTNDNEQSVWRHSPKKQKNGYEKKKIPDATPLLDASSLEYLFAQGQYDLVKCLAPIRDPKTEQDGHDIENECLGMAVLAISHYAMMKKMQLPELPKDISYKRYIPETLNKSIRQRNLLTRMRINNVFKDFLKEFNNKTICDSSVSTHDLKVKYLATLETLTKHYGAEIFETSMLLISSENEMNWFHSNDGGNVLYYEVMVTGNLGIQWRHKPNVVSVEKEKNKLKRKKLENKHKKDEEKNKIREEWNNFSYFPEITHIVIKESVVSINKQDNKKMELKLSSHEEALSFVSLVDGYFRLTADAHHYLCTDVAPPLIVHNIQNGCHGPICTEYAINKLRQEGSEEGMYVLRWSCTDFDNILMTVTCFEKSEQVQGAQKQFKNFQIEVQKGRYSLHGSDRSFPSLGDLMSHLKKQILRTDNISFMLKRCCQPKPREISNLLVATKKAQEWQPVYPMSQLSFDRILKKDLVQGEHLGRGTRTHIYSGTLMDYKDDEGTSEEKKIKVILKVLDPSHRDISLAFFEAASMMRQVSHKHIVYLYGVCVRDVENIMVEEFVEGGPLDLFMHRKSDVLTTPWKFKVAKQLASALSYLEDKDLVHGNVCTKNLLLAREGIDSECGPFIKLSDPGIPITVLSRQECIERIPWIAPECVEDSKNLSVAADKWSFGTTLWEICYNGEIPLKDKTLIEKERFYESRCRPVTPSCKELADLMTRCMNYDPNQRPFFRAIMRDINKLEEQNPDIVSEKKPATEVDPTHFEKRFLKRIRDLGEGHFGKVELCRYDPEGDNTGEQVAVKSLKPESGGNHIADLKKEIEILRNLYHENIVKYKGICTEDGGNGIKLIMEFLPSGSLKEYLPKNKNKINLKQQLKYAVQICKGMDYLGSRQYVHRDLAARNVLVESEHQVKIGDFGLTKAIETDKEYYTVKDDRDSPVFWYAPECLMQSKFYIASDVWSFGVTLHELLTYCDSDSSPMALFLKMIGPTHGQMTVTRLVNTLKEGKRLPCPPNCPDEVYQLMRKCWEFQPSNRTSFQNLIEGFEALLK

effect of a mutation on the interaction | Variant
with no effect | F102C

Variants of: B1
Settings: with jak3_human JAK3, P52333

effect of a mutation on the interaction | Variant
with no effect | F102C

Variants of: B1
Settings: with kat2a_human KAT2A

effect of a mutation on the interaction | Variant
with no effect | F102C
